From patent US11780901B2, “Analogues of parathyroid hormone (1-34) that function as agonists of the parathyroid hormone receptor-1 and display modified activity profiles” (Wisconsin Alumni Research Foundation, priority 2013, dated 2023)

Legend:
PTHR2 Y318I = biological target: T1, PTHR2 Y318I (Homo sapiens, UniProt P49190, Y318I); test: Activation of PTHR2 variant Y318I; assay type: cell-based; conditions: 100 nM
T1 construct: expressed in transfected cells
Source text: (§1) Molecular basis of PTHR1 vs. PTHR2 selectivity. Previous receptor-mutation studies have identified sites within PTHR1 and PTHR2 that play critical roles in determining peptide agonist selectivity.

PTHR1 [1] = biological target: T2, PTHR1 (Homo sapiens, UniProt Q03431); design: expressed in transfected cells; conditions: previous studies; cited from earlier work
T2 sequence (Q03431 27-593): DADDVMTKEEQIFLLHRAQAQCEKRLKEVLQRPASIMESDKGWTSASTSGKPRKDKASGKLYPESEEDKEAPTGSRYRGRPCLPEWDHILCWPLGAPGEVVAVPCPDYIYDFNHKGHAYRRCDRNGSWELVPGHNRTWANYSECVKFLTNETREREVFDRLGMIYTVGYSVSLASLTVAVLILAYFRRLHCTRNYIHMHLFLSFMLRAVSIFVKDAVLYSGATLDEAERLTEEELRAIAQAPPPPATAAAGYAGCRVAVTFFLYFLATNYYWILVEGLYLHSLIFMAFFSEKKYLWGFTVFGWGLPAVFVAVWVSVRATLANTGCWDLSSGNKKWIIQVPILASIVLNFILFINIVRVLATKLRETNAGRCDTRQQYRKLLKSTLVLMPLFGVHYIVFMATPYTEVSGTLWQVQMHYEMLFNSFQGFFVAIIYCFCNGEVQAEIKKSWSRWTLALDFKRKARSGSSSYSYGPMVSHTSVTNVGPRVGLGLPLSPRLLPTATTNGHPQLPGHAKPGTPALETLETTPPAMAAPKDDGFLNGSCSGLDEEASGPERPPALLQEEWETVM

PTHR2 [2] = biological target: T3, PTHR2 (Homo sapiens, UniProt P49190); test: Antagonism of PTHR2 activation by PTH(1-34)-NH2; assay type: cell-based; design: expressed in transfected cells; host or cells: cells stably expressing PTHR2; conditions: FIG. 11
T3 sequence (P49190 25-550): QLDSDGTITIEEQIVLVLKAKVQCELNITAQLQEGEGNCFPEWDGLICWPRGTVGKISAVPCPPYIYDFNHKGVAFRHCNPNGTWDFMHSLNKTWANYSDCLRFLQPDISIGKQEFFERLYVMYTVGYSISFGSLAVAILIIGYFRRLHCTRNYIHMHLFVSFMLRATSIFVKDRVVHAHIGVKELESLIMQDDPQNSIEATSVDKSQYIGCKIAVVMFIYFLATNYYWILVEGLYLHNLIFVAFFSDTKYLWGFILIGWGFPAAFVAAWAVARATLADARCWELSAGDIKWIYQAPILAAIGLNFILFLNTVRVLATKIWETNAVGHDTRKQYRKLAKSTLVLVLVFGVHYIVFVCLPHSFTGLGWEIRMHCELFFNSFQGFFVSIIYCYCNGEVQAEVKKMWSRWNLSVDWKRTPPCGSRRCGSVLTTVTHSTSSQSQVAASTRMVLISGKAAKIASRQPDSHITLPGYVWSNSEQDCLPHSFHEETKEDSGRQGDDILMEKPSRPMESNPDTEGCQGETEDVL
Source text: Data points represent mean±s.e.m from four independent experiments. Curves were fit to the data using a four-parameter sigmoidal dose-response equation.
See Hoare, S. R. J., Clark, J. A. & Usdin, T. B. Molecular determinants of tuberoinfundibular peptide of 39 residues (TIP39) selectivity for the parathyroid hormone-2 (PTH2) receptor—N-terminal truncation of TIP39 reverses PTH2 receptor/PTH1 receptor binding selectivity. Journal of Biological Chemistry 275, 27274-27283 (2000) and Gardella, T. J., Luck, M. D., Jensen, G. S., Usdin, T. B. & Juppner, H. Converting parathyroid hormone-related peptide (PTHrP) into a potent PTH-2 receptor agonist.

PTHR1 [3] = biological target: T2, PTHR1; test: Functional selectivity (Gs activation/cAMP production vs βarr recruitment); assay type: cell-based; design: expressed in transfected cells; host or cells: cells stably expressing PTHR1; conditions: cAMP activation vs βarr1 and βarr2 recruitment, relative to PTH (1-34)
Method: More specifically, the initial studies that yielded the compounds disclosed and claimed herein were conducted to determine whether there is a correlation between βarr recruitment and receptor residence time of a PTHR1 agonist. The initial studies were thus conducted in two steps. First, the functional selectivity (Gs activation as indicated by cAMP production vs. βarr recruitment) of several PTHR1 agonists that display substantial differences in signaling duration were evaluated. Second, novel PTHR1 agonists were designed that have high functional selectivity and evaluated the signaling duration of these biased agonists.
(§2) The functional selectivity of BA058 is more significant than that of PTHrP. […] LA-PTH is a long-acting PTH analog. […] The middle panels in FIG. 2 are graphs depicting, from left-to-right: βarr1 and βarr2 recruitment, presented as normalized BRET signals (bioluminescence resonance energy transfer) as a function of the log of the peptide concentration, and cAmp activation presented as normalized RLU signals (relative light units) as a function of the log of the peptide concentration. Red=PTH. Orange=LA=LA−PTH. Blue=BA058. Green=PTHrP. (BRET assays are well known and suitable kits are available commercially. See, for example, Promega's “NanoBRET” kits, catalogs nos. N1821 and N1811; Promega Corporation, Fitchburg, Wis.). The table at the bottom of FIG. 2 presents the pEC50 and Emax values for the […] and βarr2 recruitment and cAMP activation. FIG. 3 presents the data for the bias of the activity—either toward βarr recruitment or cAMP activation.
Incorporating (R*)-β^2Leu/(D)-Leu at the 7th position or (R*)-β^2Nle at the 8th position leads to high Gs-biased agonism. […] (D)-Nle is poorly tolerated at the 8th position for both cAMP signaling and βarr recruitment. The top panels in FIG. 5 are graphs depicting, from left-to-right: βarr1 and βarr2 recruitment, presented as normalized BRET signals as a function of the log of the peptide concentration, and cAmp activation presented as normalized RLU signals as a function of the log of the peptide concentration. […]

PTHR2 [4] = biological target: T3, PTHR2; design: expressed in transfected cells; conditions: previous studies; cited from earlier work
PTHR2 I244L = biological target: T4, PTHR2 I244L (Homo sapiens, UniProt P49190, I244L); test: Activation of PTHR2 variant I244L; assay type: cell-based; conditions: 100 nM
T4 construct: expressed in transfected cells
T4 sequence (P49190 25-550 I244L): as the sequence (P49190 25-550) above, with I220L counted along it
Source text: as §1

R^0 state of PTHR1 = biological target: T5, R^0 state of PTHR1 (Homo sapiens, UniProt Q03431); conditions: relative to PTH (1-34); cited from earlier work
T5 construct: expressed in transfected cells; host or cells: COS-7, transient; membranes
T5 sequence (Q03431 27-593): T2 sequence (Q03431 27-593)

PTHR1 [5] = biological target: T2, PTHR1; test: Wash-out assay, duration of PTHR1 activation; assay type: cell-based; design: expressed in transfected cells; host or cells: cells stably expressing PTHR1; conditions: PTHR1; agonist at ~EC80; PTH(1-34)-NH2 = 100
Source text: Duration of activation for PTHR1 and PTHR2. To assess the duration of PTHR1 and PTHR2 activation induced by α/β-peptides 14 and 15, the time course of cAMP production by each receptor was examined after stimulation with an agonist and subsequent washing of the cells to remove unbound peptide (wash-out assay). […] During the initial “ligand-on” phase, cells stably expressing PTHR1 or PTHR2 were stimulated with an agonist concentration corresponding to ˜EC80; the medium contained D-luciferin. […] After the addition of fresh medium containing D-luciferin, the luminescence decay is measured. The area under the “ligand-off” curve (AUC) reflects the duration of signaling, which may be related to residence time of the agonist on the receptor but could have other origins at the molecular level.

PTHR2 ECL1 chimera = test: Activation of PTHR2 variant, ECL1 chimera; assay type: cell-based; conditions: 100 nM
Source text: as §1

PTHR1 [6] = biological target: T2, PTHR1; test: βarr recruitment (BRET); assay type: cell-based; design: expressed in transfected cells; host or cells: cells stably expressing PTHR1; conditions: compared with PTH and LA-PTH
Source text: as §2

rat PTHR-1 (GR35 cells) = biological target: T6, rat PTHR-1 (GR35 cells) (Rattus norvegicus, UniProt P25961); test: Washout assay of Gs-biased PTHR1 agonists (cAMP response after washout); assay type: cell-based; conditions: compared with PTH (1-34)
T6 construct: expressed in transfected cells
T6 sequence (P25961 27-591): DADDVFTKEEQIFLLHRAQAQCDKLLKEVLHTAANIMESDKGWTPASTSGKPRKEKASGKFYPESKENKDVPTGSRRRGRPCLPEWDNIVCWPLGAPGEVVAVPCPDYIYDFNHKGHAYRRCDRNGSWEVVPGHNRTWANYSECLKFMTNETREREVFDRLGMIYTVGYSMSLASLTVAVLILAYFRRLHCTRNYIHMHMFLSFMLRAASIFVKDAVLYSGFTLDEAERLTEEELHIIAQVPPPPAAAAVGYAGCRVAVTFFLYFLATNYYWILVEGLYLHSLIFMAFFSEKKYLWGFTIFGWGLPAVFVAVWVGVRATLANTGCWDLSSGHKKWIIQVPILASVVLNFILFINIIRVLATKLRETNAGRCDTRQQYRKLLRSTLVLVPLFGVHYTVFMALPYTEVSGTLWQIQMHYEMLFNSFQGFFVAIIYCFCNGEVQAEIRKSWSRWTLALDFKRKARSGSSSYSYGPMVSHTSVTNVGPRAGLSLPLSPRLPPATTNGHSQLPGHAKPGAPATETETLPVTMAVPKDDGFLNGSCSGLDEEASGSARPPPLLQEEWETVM
Method: These “washout assays”^7,8,21 assess the ability of the peptides to form stable ligand-receptor complexes capable of stimulating prolonged cAMP responses. The ability of a peptide to elicit prolonged cAMP responses via PTHR-1 following washout typically correlates with the affinity of that peptide for the R^0 state.^7,8,21
HEK293 cell monolayers expressing rat PTHR-1 (GR35 cells) were treated with ligand in for 14 minutes. This buffer was then discarded, and the cell monolayer was rinsed (2×). Buffer containing luciferin was introduced for 120 minutes. Luminescence response was recorded before and after washout, with luminescence readings recorded every 2 minutes. The area under the curve (AUC) for luminescence response curve was determined using GraphPad Prism.
Data were processed by using the Microsoft Excel and GraphPad Prism 4.0 software packages. Data from binding and cAMP dose—response assays were analyzed using a sigmoidal dose—response model with variable slope. Washout responses were assessed by quantifying the area under the luminescence response curve (AUC) following washout. Post-washout AUC was normalized by dividing the post-washout AUC by the pre-washout AUC. Paired data sets were statistically compared by using Student's t test (two-tailed) assuming unequal variances for the two sets.

T1 sequence (P49190 25-550 Y318I): as the sequence (P49190 25-550) above, with Y294I counted along it

| Substance | agonist activity at PTHR2 Y318I relative to wild-type PTHR2 (in words) (PTHR2 Y318I) | PTHR1 agonist activity (in words) (PTHR1 [1]) | antagonism of PTHR2 activation by PTH(1-34)-NH2 (in words) (PTHR2 [2]) | signaling bias / functional selectivity (in words) (PTHR1 [3]) | PTHR2 agonist activity (in words) (PTHR2 [4]) | agonist activity at PTHR2 I244L relative to wild-type PTHR2 (in words) (PTHR2 I244L) | R0 affinity (in words) (R^0 state of PTHR1) | Normalized ligand-on Emax (PTHR1 [5]) | agonist activity at PTHR2 ECL1 chimera relative to wild-type PTHR2 (in words) (PTHR2 ECL1 chimera) | βarr recruitment efficacy maximum (in words) (PTHR1 [6]) | signaling duration after washout (in words) (rat PTHR-1 (GR35 cells)) |
| --- | --- | --- | --- | --- | --- | --- | --- | --- | --- | --- | --- |
| PTHrP(1-36)-NH2: parathyroid hormone-related protein fragment, naturally PTHR1-selective agonist | much more susceptible to activation | potent agonist | antagonistic effect | biased toward cAMP activation relative to both βarr1 and βarr2 recruitment | very weak agonist | much more susceptible to activation | moderate | 102 ± 1 | much more susceptible to activation | lower efficacy βarr recruitment maximum |  |
| Ligand 12: PTH(1-34) analogue with replaced residue at position 8 (character image); highly Gs-biased (SVSEIQLXHNLGKHLNSMERVEWLRKKLQDVHNF; non-natural residue at position 8; MOD_RES (8)..(8) X at position 8 is (R*)-Beta-2-Norleucine.) |  |  |  | strongly biased toward cAMP activation relative to both βarr1 and βarr2 recruitment |  |  |  |  |  |  | more transient signaling than PTH (1-34) |
